System: native human calpain I
Experiment: Calcium-dependent protease activity (Succ-Leu-Tyr-AMC), native calpain I
Type: biochemical
Conditions: 1 mM Succ-Leu-Tyr-AMC, 5 mM CaCl2; FIG. 5a
Description: Sf21 cells were again seeded in 24 well plates at 1.5×10^5 cells/cm^2 and infected with either wild-type virus, coinfected with both AcNPV-hCANP30-5 and AcNPV-hCANPI80-5 (MOI of 5 for each virus), or infected with AcNPV-hCANPI-2-5 (MOI=5.7). The intracellular proteins were harvested at 40 hours after infection with 100 μl/well of the following lysis buffer: 50 mM Tris-HCl, pH 7.5, 50 mM NaCl, 1 mM EDTA, 1 mM EGTA, 5 mM β-mercaptoethanol, 0.1% Triton-100, followed by a 10 minutes centrifugation at 14,000×g at 4° C. to pellet the nuclei and some membranes. The in vitro enzyme activity of 20 μl of each extract (12.5-20 μg of total protein) was measured using the synthetic peptide substrate succinyl-leucine-tyrosine-aminomethyl coumarin (Succ-Leu-Tyr-AMC) at a 1 mM concentration with and without the addition of 5 mM CaCl2 following the procedure of Sasaki et al., J. Biol. Chem., 259:12489-12494 (1984), incorporated herein by reference. The activity obtained was compared with the enzyme activity of 2 μg of partially-purified native human calpain I produced according to the method of Siman et al., supra.
The activity in the presence of calcium was also measured with the addition of 12.5 μM calpain inhibitor I following the procedure disclosed in Sasaki et al., supra. The results are depicted in FIGS. 5a-d. In FIGS. 5a-d, open circles represent activity without calcium present. […]

B1: native human calpain I: partially-purified native human calpain I (protein, UniProt P07384 2-714; P04632 1-268, looked up)
Calpain-1 catalytic subunit: SEEIITPVYCTGVSAQVQKQRARELGLGRHENAIKYLGQDYEQLRVRCLQSGTLFRDEAFPPVPQSLGYKDLGPNSSKTYGIKWKRPTELLSNPQFIVDGATRTDICQGALGDCWLLAAIASLTLNDTLLHRVVPHGQSFQNGYAGIFHFQLWQFGEWVDVVVDDLLPIKDGKLVFVHSAEGNEFWSALLEKAYAKVNGSYEALSGGSTSEGFEDFTGGVTEWYELRKAPSDLYQIILKALERGSLLGCSIDISSVLDMEAITFKKLVKGHAYSVTGAKQVNYRGQVVSLIRMRNPWGEVEWTGAWSDSSSEWNNVDPYERDQLRVKMEDGEFWMSFRDFMREFTRLEICNLTPDALKSRTIRKWNTTLYEGTWRRGSTAGGCRNYPATFWVNPQFKIRLDETDDPDDYGDRESGCSFVLALMQKHRRRERRFGRDMETIGFAVYEVPPELVGQPAVHLKRDFFLANASRARSEQFINLREVSTRFRLPPGEYVVVPSTFEPNKEGDFVLRFFSEKSAGTVELDDQIQANLPDEQVLSEEEIDENFKALFRQLAGEDMEISVKELRTILNRIISKHKDLRTKGFSLESCRSMVNLMDRDGNGKLGLVEFNILWNRIRNYLSIFRKFDLDKSGSMSAYEMRMAIESAGFKLNKKLYELIITRYSEPDLAVDFDNFVCCLVRLETMFRFFKTLDTDLDGVVTFDLFKWLQLTMFA
Calpain small subunit 1: MFLVNSFLKGGGGGGGGGGGLGGGLGNVLGGLISGAGGGGGGGGGGGGGGGGGGGGTAMRILGGVISAISEAAAQYNPEPPPPRTHYSNIEANESEEVRQFRRLFAQLAGDDMEVSATELMNILNKVVTRHPDLKTDGFGIDTCRSMVAVMDSDTTGKLGFEEFKYLWNNIKRWQAIYKQFDTDRSGTICSSELPGAFEAAGFHLNEHLYNMIIRRYSDESGNMDFDNFISCLVRLDAMFRAFKSLDKDGTGQIQVNIQEWLQLTMYS
B1 was tested, and the “calcium-dependent substrate hydrolysis” value was “calcium-dependent increase in substrate hydrolysis”.
